Patent US20230340071A1 (published 2023)

T1: Biotinylated hIL2RG (human, UniProt P31785 23-262, limits assumed, biotinylated (site not stated))
T1 construct: also called human common gamma receptor (hIL2RG); hIL-2Rγc
T1 sequence: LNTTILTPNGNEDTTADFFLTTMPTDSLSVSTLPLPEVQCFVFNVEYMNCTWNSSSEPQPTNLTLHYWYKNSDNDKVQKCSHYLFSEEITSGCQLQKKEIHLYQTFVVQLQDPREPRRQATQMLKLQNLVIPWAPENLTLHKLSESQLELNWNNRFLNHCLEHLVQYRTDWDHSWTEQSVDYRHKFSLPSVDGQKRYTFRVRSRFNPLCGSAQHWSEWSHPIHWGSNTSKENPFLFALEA

T2: hIL-2RBG (biotinylated hIL2RG on the sensor with hIL2RB in solution) (UniProt P14784 27-240; P31785 23-262, biotinylated (site not stated))
T2 chain 1: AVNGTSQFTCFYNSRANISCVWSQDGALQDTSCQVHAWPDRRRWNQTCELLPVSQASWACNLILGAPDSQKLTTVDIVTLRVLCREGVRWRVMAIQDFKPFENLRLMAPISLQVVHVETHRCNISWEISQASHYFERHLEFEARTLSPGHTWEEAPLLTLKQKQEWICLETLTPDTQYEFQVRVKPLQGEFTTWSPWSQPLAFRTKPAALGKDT
T2 chain 2: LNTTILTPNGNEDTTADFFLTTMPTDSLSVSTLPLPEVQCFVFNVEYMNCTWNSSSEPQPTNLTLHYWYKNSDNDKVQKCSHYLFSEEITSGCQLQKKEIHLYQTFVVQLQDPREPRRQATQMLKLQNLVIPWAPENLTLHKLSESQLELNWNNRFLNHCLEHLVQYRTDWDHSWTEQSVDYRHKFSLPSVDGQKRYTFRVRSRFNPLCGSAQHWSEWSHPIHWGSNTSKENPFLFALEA

T3: human IL-2 receptor (IL-2Rβγc) on cells (human, UniProt P14784 27-551; P31785 23-369)
T3 sequence 1: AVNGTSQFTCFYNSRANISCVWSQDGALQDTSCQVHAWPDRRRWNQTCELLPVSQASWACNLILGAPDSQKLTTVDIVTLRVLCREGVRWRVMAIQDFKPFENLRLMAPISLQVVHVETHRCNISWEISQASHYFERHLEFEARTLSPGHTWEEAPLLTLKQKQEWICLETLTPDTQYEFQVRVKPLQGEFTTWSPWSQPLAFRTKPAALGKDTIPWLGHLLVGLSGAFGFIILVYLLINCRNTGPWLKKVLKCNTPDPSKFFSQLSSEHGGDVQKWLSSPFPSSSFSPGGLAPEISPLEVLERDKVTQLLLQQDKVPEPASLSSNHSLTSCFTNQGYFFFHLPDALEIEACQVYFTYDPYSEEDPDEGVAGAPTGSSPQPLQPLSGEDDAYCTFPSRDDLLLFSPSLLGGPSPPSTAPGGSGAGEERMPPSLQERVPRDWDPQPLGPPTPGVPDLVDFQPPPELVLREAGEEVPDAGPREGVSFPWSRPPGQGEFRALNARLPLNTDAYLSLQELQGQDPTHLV
T3 sequence 2: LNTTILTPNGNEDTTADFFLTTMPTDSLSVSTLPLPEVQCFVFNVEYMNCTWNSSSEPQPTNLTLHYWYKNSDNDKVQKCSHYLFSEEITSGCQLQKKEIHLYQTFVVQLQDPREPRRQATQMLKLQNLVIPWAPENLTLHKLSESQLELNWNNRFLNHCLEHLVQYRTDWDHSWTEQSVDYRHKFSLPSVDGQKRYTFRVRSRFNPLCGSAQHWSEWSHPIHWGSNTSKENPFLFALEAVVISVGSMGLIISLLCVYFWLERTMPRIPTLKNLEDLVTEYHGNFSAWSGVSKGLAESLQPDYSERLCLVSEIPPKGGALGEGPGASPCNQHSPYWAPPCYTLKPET

T4: Biotinylated hIL2RB (UniProt P14784 27-240, biotinylated (site not stated))
T4 chain: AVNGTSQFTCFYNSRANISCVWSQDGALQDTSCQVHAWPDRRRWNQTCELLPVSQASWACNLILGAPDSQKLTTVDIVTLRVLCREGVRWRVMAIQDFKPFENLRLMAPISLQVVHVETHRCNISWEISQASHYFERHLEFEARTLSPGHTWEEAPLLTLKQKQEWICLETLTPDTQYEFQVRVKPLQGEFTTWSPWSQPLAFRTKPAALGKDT

T5: hIL2RG-fc chimera (human, UniProt P31785 23-262)
T5 construct: also called hIL2G; hIL2 receptor gamma; not shown: Fc part of the bought chimera (captured on anti-human IgG Fc biosensors)
T5 sequence: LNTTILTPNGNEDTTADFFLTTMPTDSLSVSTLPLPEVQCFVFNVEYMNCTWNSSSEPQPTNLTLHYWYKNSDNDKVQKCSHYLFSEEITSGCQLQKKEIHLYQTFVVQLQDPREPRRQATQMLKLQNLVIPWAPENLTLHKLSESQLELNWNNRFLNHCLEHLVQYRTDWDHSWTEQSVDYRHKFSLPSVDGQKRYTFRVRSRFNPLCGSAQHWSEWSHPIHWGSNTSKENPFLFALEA

T6: hIL2RB-fc chimera (human, UniProt P14784 27-240)
T6 construct: also called hIL2 receptor beta; hIL-2Rβ; not shown: Fc part of the bought chimera (captured on anti-human IgG Fc biosensors)
T6 sequence: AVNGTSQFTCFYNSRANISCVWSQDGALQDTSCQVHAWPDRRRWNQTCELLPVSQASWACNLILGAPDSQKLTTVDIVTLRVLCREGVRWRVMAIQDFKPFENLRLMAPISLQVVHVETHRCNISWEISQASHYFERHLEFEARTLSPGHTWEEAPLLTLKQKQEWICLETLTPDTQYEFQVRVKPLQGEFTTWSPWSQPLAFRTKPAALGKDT

T7: mouse IL-2 beta receptor (mouse, UniProt P16297 27-240)
T7 construct: also called mIL2RB; beta part of mIL2RBG
T7 sequence (looked up): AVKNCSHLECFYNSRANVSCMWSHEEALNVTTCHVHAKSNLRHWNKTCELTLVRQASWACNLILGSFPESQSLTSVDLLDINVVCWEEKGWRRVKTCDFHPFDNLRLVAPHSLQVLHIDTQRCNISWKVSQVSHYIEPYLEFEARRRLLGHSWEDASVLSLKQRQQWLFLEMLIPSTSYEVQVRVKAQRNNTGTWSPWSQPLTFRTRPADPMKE


Columns and labels:
Biotinylated hIL2RG = target: T1, Biotinylated hIL2RG; experiment: BLI (Octet RED96), biotinylated hIL2RG on streptavidin sensors, 200 nM protein + 200 nM hIL2RB
Experimental: Biotinylated hIL2RG molecules were immobilized to Streptavidin sensors (SA, ForteBio) at 2 μg/mL in binding buffer (10 mM HEPES, pH 7.4, 150 mM NaCl, 3 mM EDTA, 0.05% surfactant P20, 0.5% non-fat dry milk). After baseline measurement in the binding buffer alone, the binding kinetics were monitored by dipping the biosensors in wells containing 200 nM of protein and 200 nM of hIL2RB for 300 sec. Data were collected in an Octet RED96 (ForteBio) and processed using the instrument's integrated software.

[1] = target: T2, hIL-2RBG (biotinylated hIL2RG on the …); experiment: BLI competition, inhibition of hIL-2 binding
[2] = target: T3, human IL-2 receptor (IL-2Rβγc) on cells; experiment: cell-based or functional assay
Biotinylated hIL2RB = target: T4, Biotinylated hIL2RB; experiment: BLI
[3] = target: T3, human IL-2 receptor (IL-2Rβγc) on cells; experiment: cell-based or functional assay; remark: listed apart in the source
hIL2RG-fc chimera [4] = target: T5, hIL2RG-fc chimera; experiment: BLI (Octet RED96e), hIL2RG-fc (AcroBiosystems) on anti-human IgG Fc sensors
Experimental: (§1) For this purpose, sensors were soaked in samples containing 20 nM of hIL2RG-fc chimera (AcroBiosystems) for 300 sec. […] Finally, sensors were removed from the protein samples and dipped in buffer solutions to promote and measure dissociation (1500 sec). The buffer used to prepare all the samples and soak the sensors was HBS-EP+ from GE Healthcare, which contains 10 mM HEPES, 150 mM NaCl, 3 mM EDTA and 0.05% v/v surfactant P20, pH 7.4. Data were acquired at 30° C. using an Octet RED96e system (ForteBio) and processed using the instrument's integrated software. Kinetics were fitted to a 1:1 binding model after subtracting a buffer signal baseline and the Kd values were calculated.

hIL2RB-fc chimera [5] = target: T6, hIL2RB-fc chimera; experiment: BLI (Octet RED96e), hIL2RB-fc (AcroBiosystems) on anti-human IgG Fc sensors
Experimental: as §1, with “hIL2RB-fc” for “hIL2RG-fc”, “HBS-EP+from” for “HBS-EP+ from”

mouse IL-2 beta receptor = target: T7, mouse IL-2 beta receptor; experiment: BLI competition: mIL2RG on sensor, dilutions of P3 + 20 nM Neo-2/15; competitor Neo-2/15; read-out binding to mIL2RBG
Experimental: (§2) All samples were prepared using HBS-EP+buffer from GE Healthcare, which contains 10 mM HEPES, 150 mM NaCl, 3 mM EDTA and 0.05% v/v surfactant P20, pH 7.4. Data were acquired at 30° C. using an Octet RED96e system (ForteBio) and processed using the instrument's integrated software. IC50 values were estimated from response vs antagonist concentration plots.

[6] = target: T3, human IL-2 receptor (IL-2Rβγc) on cells; experiment: cell-based or functional assay; remark: listed apart in the source
hIL2RG-fc chimera [7] = target: T5, hIL2RG-fc chimera; experiment: BLI (Octet RED96e), hIL2RG-fc on anti-human IgG Fc sensors, 200 nM P3 + 200 nM hIL2RB-fc
Experimental: (§3) All samples were prepared using HBS-EP+ buffer from GE Healthcare, which contains 10 mM HEPES, 150 mM NaCl, 3 mM EDTA and 0.05% v/v surfactant P20, pH 7.4. Data were acquired at 30° C. using an Octet RED96e system (ForteBio) and processed using the instrument's integrated software.

hIL2RB-fc chimera [8] = target: T6, hIL2RB-fc chimera; experiment: BLI competition: hIL2RG-fc on sensor, dilutions of P3 + 20 nM Neo-2/15 + 50 nM hIL2RB-fc; competitor Neo-2/15; read-out binding to hIL2RBG
Experimental: as §2

hIL2RB-fc chimera [9] = target: T6, hIL2RB-fc chimera; experiment: BLI (Octet RED96e), hIL2RB-fc (Symansis) on anti-human IgG Fc sensors
Experimental: as §1, with “hIL2RB-fc” for “hIL2RG-fc”, “(Symansis)” for “(AcroBiosystems)”, “HBS-EP+from” for “HBS-EP+ from”

hIL2RG-fc chimera [10] = target: T5, hIL2RG-fc chimera; experiment: BLI (Octet RED96e), hIL2RG-fc on anti-human IgG Fc sensors
Experimental: as §1

hIL2RG-fc chimera [11] = target: T5, hIL2RG-fc chimera; experiment: BLI (Octet RED96e), hIL2RG-fc (Symansis) on anti-human IgG Fc sensors, protein + 200 nM hIL2RB-fc
Experimental: as §3

Row | Binder | binding result (Biotinylated hIL2RG) | IC50 [1] | Signaling Inhibition IC50 (1 nM hIL-2, pSTAT5, CD8+ T cells) [2] | Kd (Biotinylated hIL2RB) | Induced Signaling EC50 (pSTAT5, YT-1 CTLL-2 cells) [3] | Kd (hIL2RG-fc chimera [4]) | Kd (hIL2RB-fc chimera [5]) | other results
1 | Protein 6 (P6) (designed binder, P5 with 'Y8F' (printed; P5 has H at 8) and K33E; N-terminal 6xHis tag and thrombin site in the expression vector) PKKKIQLFAEHALYDAEMILKIVKTNSPPAEEELEDYAFNFELILEEIARLFESGDQKDEAEKAKRMKEWMKRIKTTASEDEQEEMANKIRKILEEWIRS | no binding (tested: 200 nM) | 83 nM | 0.41 nM | < 1 nM |  |  |  | Signaling Inhibition IC50 (1 nM hIL-2, pSTAT5, CD4+ T cells) [2]: 1.84 nM; Signaling Inhibition IC50 (1 nM hIL-2, pSTAT5, all T cells) [2]: 0.83 nM
2 | Protein 1 (P1) (designed binder, N-terminal 6xHis tag and thrombin site in the expression vector) PKKKIQLHAEHARYDAEMILNIVKTNSPPAEEKLEDYAFNFELILEEIARLFESGDQKDEAEKAKRMKEWMKRIKTTASEDEQEEMANAIITILTSWIRS |  |  |  |  | 557 nM | 1190 nM | 17 nM | 
3 | Protein 3 (P3) (designed binder, P1 with H8Y and K33E; N-terminal 6xHis tag and thrombin site in the expression vector) PKKKIQLYAEHARYDAEMILNIVKTNSPPAEEELEDYAFNFELILEEIARLFESGDQKDEAEKAKRMKEWMKRIKTTASEDEQEEMANAIITILTSWIRS |  |  |  |  |  |  |  | IC50 (mouse IL-2 beta receptor): > 200 nM; Binding Inhibition IC50 (inhibition of hIL-2 pSTAT5 signaling, human pan T cells, 0.1 nM hIL2) [6]: 1.4 nM; Binding Inhibition IC50 (inhibition of hIL-2 pSTAT5 signaling, human pan T cells, 1 nM hIL2) [6]: 11.7 nM; Binding Inhibition IC50 (inhibition of hIL-2 pSTAT5 signaling, human pan T cells, 10 nM hIL2) [6]: 863 nM; binding result (hIL2RG-fc chimera [7]): no binding (tested: 200 nM); IC50 (hIL2RB-fc chimera [8]): 12.5 nM; Kd (hIL2RB-fc chimera [9]): 0.2 nM
4 | Protein 5 (P5) (designed binder, N-terminal 6xHis tag and thrombin site in the expression vector) PKKKIQLHAEHALYDAEMILKIVKTNSPPAEEKLEDYAFNFELILEEIARLFESGDQKDEAEKAKRMKEWMKRIKTTASEDEQEEMANKIRKILEEWIRS | no binding (tested: 200 nM) | 100 nM | 77.7 nM | 12 nM |  |  |  | 
5 | Protein 2 (P2) (designed binder, N-terminal 6xHis tag and thrombin site in the expression vector) PKKKIQLHAEHALYDAEMILKIVKTNSPPAEEKLEDYAFNFELILEEIARLFESGDQKDEAEKAKRMKEWMKRIKTTASEDEQEEMANRIRKILEEWIRS |  |  |  |  | 426 nM |  | 21 nM | binding result (hIL2RG-fc chimera [10]): no binding (tested: 5000 nM (highest concentration tested))
6 | Neo-2/15 (designed binder, Proteins were expressed in E. coli with an N-terminal 6xHis tag and thrombin site; also called Neoleukin-2/15) PKKKIQLHAEHALYDALMILNIVKTNSPPAEEKLEDYAFNFELILEEIARLFESGDQKDEAEKAKRMKEWMKRIKTTASEDEQEEMANAIITILQSWIFS |  |  |  |  |  | 277 nM |  | Kd (hIL2RG-fc chimera [11]): 277 nM
